Laboratory results from the supplement of paper PMC10567573.
± gives the standard deviation.

Test: protein stability index of a GFP-peptide fusion (GPS, HEK-293T) (PSI 1-6); higher = more stable
[1] = treatment: DMSO, c terminus: a fixed tail appended
[2] = treatment: MLN4924 1 uM, 8 h, c terminus: a fixed tail appended
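Also: 24-mer peptide tiles fused after GFP, lentivirally expressed, FACS-sorted into six equal bins by GFP/DsRed ratio, decoded by Illumina sequencing, PSI is the read-weighted mean bin number.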

Sequence	protein stability index [1]	protein stability index [2]	protein stability index (treatment: DMSO, c terminus: native)	protein stability index (treatment: MLN4924 1 uM, 8 h, c terminus: native)
EARICRLLKHSNIVRLHDSISEEG [CAMK2B]	3.32 ± 0.41	3.46 ± 0.28	–	–
EARKYASNLLKAGFIRHTVNKITF [DVL3]	2.31 ± 0.48	2.16 ± 0.18	–	–
EASRLNIERMKQIYQQLSRYRGLG [CRY1]	2.48 ± 0.26	2.37 ± 0.3	–	–
ECGKRFLRSSDLYRHQRLHTGERP [ZNF449]	3.08 ± 0.26	3.22 ± 0.24	–	–
ECQLTHSHPACPLEFAYYFRPGHL [ZSWIM9]	2.57 ± 0.036	2.59 ± 0.47	–	–
EDGKRCVAVDYCASENHGCEHECV [MATN2]	4.92 ± 0.14	4.88 ± 0.7	–	–
EDLATAYNNRGQIKYFRVDFYEAM [TTC32]	2.21 ± 0.17	2.23 ± 0.32	–	–
EDLTPEDDMPIGRNVLELNDVRQS [PTPRD]	5.13 ± 0.3	5.19 ± 0.14	–	–
EEAAFPGRRVNAKMPVYSGSRPAC [ELOA2]	4.01 ± 0.093	3.98 ± 0.27	–	–
EEAGSQENHPQESKGQPRSQEESE [CHGB]	5.57 ± 0.25	5.64 ± 0.17	–	–
EEAVPEEEGPTVVLNPHPSLGYKE [CHGA]	5.33 ± 0.28	5.32 ± 0.38	–	–
EEDNWDPELMEHTEAESEQEGSSG [TEX19]	5.7 ± 0.26	5.65 ± 0.16	–	–
EEEENRDSQQPGKRRKDSEEEAAS [FANCE]	5.78 ± 0.21	5.73 ± 0.2	–	–
EEFLSAMQSARGPTPSSPLPSVPV [PLEKHN1]	4.15 ± 0.27	4.14 ± 0.19	–	–
EEGDEQQRLLNTPRRKKLKSTSKY [GMCL1]	4.75 ± 0.12	4.9 ± 0.39	–	–
EEKADVLARGPLNQTALHLAAAHG [RIPK4]	4.5 ± 0.17	–	–	–
EEPVPRERDRDPCGGSGGGGGGGG [LURAP1L]	5.69 ± 0.29	5.67 ± 0.22	–	–
EEQATKQFLEEINKWTVQYNVSPL [PTPN9]	2.96 ± 0.54	3.15 ± 0.43	–	–
EERKNEMTQVITRTQEEKLEHVRA [TRIM55]	5.3 ± 0.21	5.54 ± 0.21	–	–
EERSPSFGEDYYGPSRSRHRRRSR [CLK3]	5.32 ± 0.2	5.46 ± 0.062	–	–
EEVPEGMEEAAVASVVLPARELQE [BCL2L13]	5.59 ± 0.2	5.41 ± 0.26	–	–
EEVVYDLSIRGFNKETAAACVEK [TSN]	–	–	4.39 ± 0.14	4.38 ± 0.27

Sequence	protein stability index [1]	protein stability index [2]	protein stability index (treatment: DMSO, c terminus: native)	protein stability index (treatment: MLN4924 1 uM, 8 h, c terminus: native)
EFLELSPQKLKEVISLEKLNVGNE [GAN]	3.44 ± 0.61	3.09 ± 0.51	–	–
EGFADGFVKALDDLHKMNHVTPPN [JUNB]	4.12 ± 0.22	4.17 ± 0.3	–	–
EGHCVIQVDVGDVNDNAPEVLLAS [PCDHGC5]	3.86 ± 0.35	3.96 ± 0.27	–	–
EGPMEEEEAQPMAAPEGKRSLANG [EID1]	5.66 ± 0.25	5.58 ± 0.21	–	–
EHGPSPGQDTFCQGKADGLYPNPR [CHIT1]	4.38 ± 0.26	4.36 ± 0.53	–	–
EHRRTARRTPPGQQRPHPRSHSRE [ELOA2]	5.47 ± 0.14	5.32 ± 0.39	–	–
EIAPQHRRGLLVSLNELMIVIGIL [SLC2A12]	2.07 ± 0.11	2.33 ± 0.16	–	–
EIQVDSEEPVFEAVINWVKHAKKE [KLHL12]	3.57 ± 0.4	3.92 ± 0.95	–	–
EISVDSLDFSKKILHTAWHPSENI [PPP2R2B]	2.28 ± 0.26	2.41 ± 0.21	–	–
EKEKHVNQLQTKVAVLEQEIKDKD [SASS6]	5.38 ± 0.12	5.53 ± 0.14	–	–
EKLKEKLKMKEREEAWVKIENLAK [PPP2R5C]	2.54 ± 0.6	2.48 ± 0.39	–	–
EKSQAYPRRRRPGCYAYRQNPEAI [MYORG]	3.34 ± 0.27	3.32 ± 0.14	–	–
ELDLRLRLAQPSSPEVLTPQLSPG [RTN2]	4.23 ± 0.24	4.22 ± 0.15	–	–
ELQGFWMDIGQPKDFLTGMCLFLQ [GMPPB]	2.19 ± 0.25	2.01 ± 0.35	–	–
ELQRQKEAEKLERQLALPATEQAA [NOP53]	5.14 ± 0.34	5.42 ± 0.31	–	–
ELVKSGVLGADGVCMTFMKQIAGG [INTS3]	2.27 ± 0.52	2.49 ± 0.068	–	–
EMAATPAGFAQLTHLLMGLAGGKL [HDAC6]	2.26 ± 0.39	2.39 ± 0.22	–	–
EMMSQALKATFSGFTKEQQRLGIP [ETS1]	2.35 ± 0.28	2.49 ± 0.2	–	–
EMRQALQALLKENRLLQEENRTLQ [CBY2]	2.53 ± 0.45	2.65 ± 0.41	–	–
EMSRGEQDLIEDLKLARKAYHDPM [NET1]	4.5 ± 0.27	4.47 ± 0.33	–	–
ENCERREAFWAEWKDLTLSTRPEE [TCAP]	4.53 ± 0.097	4.68 ± 0.2	–	–
ENLLLASKLKGAAVKLADFGLAIE [CAMK2A]	2.35 ± 0.25	2.7 ± 0.29	–	–

Sequence	protein stability index [1]	protein stability index [2]	protein stability index (treatment: DMSO, c terminus: native)	protein stability index (treatment: MLN4924 1 uM, 8 h, c terminus: native)
EPTETLLSEKEINAREESLVEELS [BCL2L13]	5.46 ± 0.12	5.55 ± 0.26	–	–
EPVTLETPAFMFRLDASTSHQNLR [FSD1]	3.6 ± 0.35	3.83 ± 0.2	–	–
EQNIIPSATNVTCYYQPAPYVSDG [TENT5C]	3.43 ± 0.4	3.63 ± 0.32	–	–
EQQNQEYKILLDVKTRLEQEIATY [KRT17]	3.44 ± 0.34	3.59 ± 0.56	–	–
EQVFNAVMAWVKYSIQERRPQLPQ [KLHL20]	2.75 ± 0.67	2.35 ± 0.68	–	–
ERDTLSIRESRLFGAVVRWAEAEC [BTBD1]	3.13 ± 0.21	3.12 ± 0.34	–	–
ERETEATRGRGGLLRDHIPRGKEE [MOG]	5.38 ± 0.38	5.18 ± 0.41	–	–
ERLLCPSLLAGTADGSLRMDDPKG [M1AP]	4.74 ± 0.3	4.71 ± 0.3	–	–
ERRHREEKERRKKQQWEIMHKHNE [RSPH3]	4.8 ± 0.23	4.65 ± 0.28	–	–
ESQLDPSNCLGIRDFAETHNCVDL [KLHL12]	3.9 ± 0.45	4.26 ± 0.49	–	–
ESQSTSLRGSYNSLHDGSDGLDGI [LURAP1L]	4.91 ± 0.11	4.68 ± 0.17	–	–
ESSLGSESEEEEEFYDADEETQMI [SLC22A15]	5.05 ± 0.24	4.88 ± 0.3	–	–
ESTIVELGSIFQQLAHMVKEQEET [STX5]	2.4 ± 0.7	3.25 ± 0.094	–	–
ESVVSSAVPAAATRTTSFKGTSPS [KCTD10]	5.09 ± 0.056	5.25 ± 0.21	–	–
ESYFTTRTYGEPESAGPSRAVRQS [EMD]	4.62 ± 0.26	4.57 ± 0.18	–	–
ETAEEVSARIVQVVTAEAVAVLKG [MAP2]	3.36 ± 0.27	3.45 ± 0.34	–	–
ETILHFFVQILLALHHVHTHLILH [NEK8]	3.19 ± 0.44	3.31 ± 0.29	–	–
ETVTVTVGPAEPTLVNFHLKRSIP [CPN1]	3.02 ± 0.3	3.16 ± 0.2	–	–
EVGPQEINKEELEGNSMRCGRKLA [GMCL1]	4.75 ± 0.48	4.76 ± 0.3	–	–
EVSLDSLDLRVKGILSSQAEGLAN [EHMT1]	4.18 ± 0.19	4.05 ± 0.42	–	–
EVVPIHGRGNFPTLEITLKDIVQT [TENT5C]	3.5 ± 0.31	3.39 ± 0.27	–	–
